# Data taken from US20210380994A1, “LACTOCOCCUS LACTIS EXPRESSION SYSTEM FOR DELIVERING PROTEINS EFFICACIOUS FOR THE TREATMENT OF EPITHELIAL BARRIER FUNCTION DISORDERS” (Second Genome, Inc., priority 2018, published 2021).
# Test system: human colonic epithelial cells (HCT8 enterocytes and HT29-MTX goblet cells)
# Experiment: trans-epithelial electrical resistance (TEER) assay, epithelial/monocyte co-culture disrupted by heat killed E. coli
# Type: cell-based
# Experimental: Assays were performed as described below in trans-well plates where co-cultures of multiple cell types were performed utilizing a permeable membrane to separate cells. In the apical (top) chamber, human colonic epithelial cells, consisting of a mixture of enterocytes and goblet cells, were cultured until cells obtained tight junction formation and barrier function capacity as assessed by measurement of trans-epithelial electrical resistance (TEER). In the basolateral chamber, monocytes were cultured separately. Epithelial […] were primed with inflammatory cytokines. The assays measured the effect of a therapeutic protein, e.g., SG-11, on epithelial barrier function, muc2 gene expression, and production of cytokines.
# Cell culture. The HCT8 human enterocyte cell line (ATCC Cat. No. CCL-244) was maintained in RPMI-1640 medium supplemented with 10% fetal bovine seam, 100 IU/ml penicillin, 100 ? g/ml streptomycin, 10 ? g/ml gentamicin and 0.25 μg/ml amphotericin (cRPMI). HT29-MTX human goblet cells (Sigma-Aldrich (St. Louis, Mo.; Cat. No. 12040401) were maintained in DMEM medium with 10% fetal bovine serum, 100 IU/ml penicillin, 100 ? g/ml streptomycin, 10 ? g/ml gentamicin and 0.25 μg/ml amphotericin (cDMEM). Epithelial cells were passaged by trypsinization and were used between 5 and 15 passages following thawing from liquid nitrogen stocks. U937 monocytes (ATCC Cat. No. 700928) were maintained in cRPMI medium as a suspension culture, and split by dilution as needed to maintain cells between 5×10^5 and 2×10^6 cell/ml. U937 cells were used up to passage 18 following thawing from liquid nitrogen stocks.
# Epithelial cell culture. A mixture of HCT8 enterocytes and HT29-MTX goblet cells were plated at a 9:1 ratio, respectively, in the apical chamber of the transwell plate as described previously (Berget et al., 2017, Int J Mol Sci, 18:1573; Beduneau et al., 2014. Eur J Pharm Biopharm, 87:290-298). A total of 10^5 cells were plated in each well (9×10^4 HCT cells and 1×10^4 HT29-MTX cells per well). Epithelial cells were trypsinized from culture flasks and viable cells determined by trypan blue counting. The correct volumes of each cell type were combined in a single tube and centrifuged. The cell pellet was resuspended in cRPMI and added to the apical chamber of the transwell plate. Celle were cultured for 8 to 10 days at 37° C.+5% CO2, and media was changed every 2 days.
# Monocyte culture. On day 6 of epithelial cell culture 2×10^5 cells/well U937 monocytes were plated into a 96 well receiver plate. Cells were cultured at 37° C.+5% CO2 and media was changed every 24 hours for four days.
# Co-culture assay. Following 8-10 days of culture, 10 ng/ml IFN-© was added to the basolateral chamber of the transwell plate containing enterocytes, for 24 hours at 37° C.+5% CO2. After 24 hours, fresh cRPMI was added to the epithelial cell culture plate. TEER readings were measured after the IFN-© treatment and were used as the pre-treatment TEER value. SG-11 was then added to the apical chamber of the transwell plate at a final concentration of 1 ? g/ml (40 nM). The myosin light chain kinase (MLCK) inhibitor peptide 18 (BioTechne, Minneapolis, Minn.) was used at 50 nM as a positive control to prevent inflammation induced barrier disruption (Zolotarevsky et al., 2002, Gastroenterology. 123:163-172). […]
# [1] = Example 12, 1 μg/ml (40 nM), 6 hours pre-incubation, SG-11 = SEQ ID NO:9, HK E. coli alone 78.6%, FIG. 17
molecule,measurement,setting,value
"SG-11V5: variant of SEQ ID NO:7 with N53S, N83S, C147V, C151S (protein, Artificial variant of SG-11 (N53S, N83S, C147V, C151S)) MLEGEESVVYVGKKGVIASLDVETLDQSYYDETELKSYVDAEVEDYTAEHGKSAVKVESLKVEDGVAKLKMKYKTPEDYTAFSGIELYQGKVVASLAAGYVYDGEFARVEEGKVVGAATKQDIYSEDDLKVAIIRANTDVKVDGEIVYVSSQNVKLTGKDSVSIRDGYYLETGSVTASVDVTGQESVGTEQLSGTEQMEMTGEPVNADDTEQTEAAAGDGSFETDVYTFIVYK",TEER following disruption by HK E. coli,[1],89.1%
"SG-11: Roseburia hominis protein comprising SEQ ID NO:3; tested as SEQ ID NO:5, SEQ ID NO:7 or FLAG-tagged SEQ ID NO:9 (protein, listed as Rosburia hominis) LEGEESVVYVGKKGVIASLDVETLDQSYYDETELKSYVDAEVEDYTAEHGKNAVKVESLKVEDGVAKLKMKYKTPEDYTAFNGIELYQGKVVASLAAGYVYDGEFARVEEGKVVGAATKQDIYSEDDLKVAIIRANTDVKVDGEICYVSCQNVKLTGKDSVSIRDGYYLETGSVTASVDVTGQESVGTEQLSGTEQMEMTGEPVNADDTEQTEAAAGDGSFETDVYTFIVYK",TEER following disruption by HK E. coli,[1],89.5%
same,TEER following disruption by HK E. coli,"Example 15, 1 μg/ml, 6 hours pre-incubation, SG-11 = SEQ ID NO:9, HK E. coli alone 78.6%, FIG. 28",89.5%
same,TEER following disruption by HK E. coli,"SG-11 1 μg/ml added 6 hours prior to HK E. coli, HK E. coli alone 53.5%, FIG. 1B",60.6%
same,TEER following disruption by HK E. coli,"SG-11 (SEQ ID NO:5 or 9) 1 μg/ml (40 nM) added 30 minutes prior to HK E. coli, HK E. coli alone 55.8%, FIG. 1A",62%
